# Test results as given in patent US20250188194A1, “Method of treatment” (Nucleus Therapeutics Pty Ltd, priority 2021, published 2025).
# “And” between values parts separate entries of the source, which are not always exact repeats. Identical values can stand only once.
# B1: DX1: 3E10 derivative, a di-scFv having the sequence SEQ ID NO: 38; nuclear-penetrating anti-DNA binding protein (protein)
# scFv: DIQMTQSPSSLSASLGDRATITCRASKTVSTSSYSYMHWYQQKPGQPPKLLIKYASYLESGVPSRFSGSGSGTDFTLTISSLQPEDAATYYCQHSREFPWTFGGGTKVEIKTVDAAPGGGGSGGGGSGGGGSEVQLVESGGGLVQPGGSLRLSCAASGFTFSNYGMHWVRQAPGKGLEWVSYISSGSSTIYYADSVKGRFTISRDNAKNSLYLQMNSLRAEDTAVYYCARRGLLLDYWGQGTTVTVSSASTKGPSVFPLAPLESTGSDIQMTQSPSSLSASLGDRATITCRASKTVSTSSYSYMHWYQQKPGQPPKLLIKYASYLESGVPSRFSGSGSGTDFTLTISSLQPEDAATYYCQHSREFPWTFGGGTKVEIKTVDAAPGGGGSGGGGSGGGGSEVQLVESGGGLVQPGGSLRLSCAASGFTFSNYGMHWVRQAPGKGLEWVSYISSGSSTIYYADSVKGRFTISRDNAKNSLYLQMNSLRAEDTAVYYCARRGLLLDYWGQGTTVTVSS
# modifications: DX1 sequence
# Columns and labels:
# [1] = test system: differentiated PLB-985 cells; assay: H3Cit western blot; assay type: cell-based, human; details: 10 μM DX1 one hour, then PMA; PMA control 0.64±0.06; N=3
# Method: FIGS. 5A-5B. […] Differentiated PLB-985 cells were pre-treated with control media or media containing 10 μM DX1 for one hour, followed by stimulation with PMA. Cellular contents were isolated and analyzed by H3Cit western blot. Representative cropped blot is shown in (5A), and quantification of H3Cit band intensity normalized to actin in (5B). […]
# Histone citrullination by PAD4 is a key step in NETosis that is targeted by the selective PAD4 inhibitor GSK484. Differentiated PLB-985 cells treated with control or 10 μM DX1 for one hour were stimulated by PMA, and cell contents were isolated and analyzed for H3Cit content by western blot with normalization to actin. […]
# Differentiated PLB-985 cells at 8×10^5 cells/well in 12-well plates were incubated with control buffer or buffer containing 10 μM DX1 for one hour and then stimulated by addition of 300 nM PMA for two hours. Cells were isolated by centrifugation, lysed in RIPA buffer, and H3Cit content determined by western blot using anti-H3Cit primary (#AB5103, abcam, Cambridge, MA, USA) and goat anti-rabbit HRP-conjugated secondary antibody at 1:5000 (#AB205718, abcam). H3Cit band intensities normalized to actin loading control were determined by ImageJ (NIH, Bethesda, MD).
# [2] = test system: differentiated PLB-985 cells; assay: Visualization of chromatin decondensation by DAPI stain after PMA stimulation; assay type: cell-based, human; details: one hour pre-treatment with 10 μM DX1, 300 nM PMA two hours; control cells 67.5%; N=2
# Method: FIGS. 2A-2D. DAPI and SYTOX™ Green stains support the conclusion that DX1inhibits chromatin decondensation and DNA release by differentiated PLB-985 cells stimulated with PMA. (2A) Chromatin decondensation in differentiated PLB-985 cells after stimulation with PMA±a one hour pre-treatment with 10 μM DX1 was visualized by DAPI stain. Left panel: Control cells with decondensed DAPI stain after PMA stimulation. Right panel: DX1-treated cells retaining condensed DAPI signal after PMA stimulation. Bar: 25 μm. (2B) Quantification of the percentage of differentiated PLB-985 cells with decondensed DAPI stain after PMA stimulation. […] (2C) DNA release by differentiated PLB-985 cells after stimulation with PMA±a one hour pre-treatment with 10 μM DX1 was visualized by addition of the impermeant DNA stain SYTOX™ Green. Representative images are shown. Bar: 25 μm. (2D) SYTOX™ Green signal in wells containing differentiated PLB-985 cells stimulated with PMA±a one hour pre-treatment with 10 […] was quantified by plate reader. […]
# Differentiated PLB-985 cells were plated on Shi-fix coverslips in 12-well plates at 5×10^4 cells/well. […] Cells were fixed with ethanol followed by addition of DAPI and visualization of chromatin decondensation by fluorescence microscopy (EVOS FL, Thermo Fisher Scientific).
molecule,measurement,setting,value
B1,"intracellular H3Cit content normalized to actin, relative to unstimulated cells",[1],1.46±0.20
same,percentage of cells with decondensed DAPI stain after PMA stimulation,[2],37.8±2.7% and 37.8±3.8%
